Measured values as given in the DeepSol protein solubility set.

experiment: soluble on expression in E. coli; label from the status in PepcDB or PDB records

Sequence | soluble on expression in E. coli
MPDHLGDDMRKTKKDDTKEEEKNFQALDEGDIAVLKRYGQGPYAEQLKTLDADIENCLKKVNELSGVKESDTGLAPPALWDIAADKQAMQQEQPLQVARCTKIITSDKHDPRYLINVKQFAKFVVDLADSVAPTDIEEGMRVGVDRNKYQIHLPLPAKIDPTVTMMQVEEKPDVTYSDVGGCKDQIEKLREVVETPLLHPERYVNLGIEPPKGVLLYGPPGTGKTLCARAVANRTDACFIRVIGSELVQKYVGEGARMVRELFEMARTKKACLIFFDEIDAVGGARFDDGQGGDNEVQRTMLELINQLDGFDPRGNIKVLMATNRPDTLDPALMRPGRLDRKVEFALPDLAGRAHILKIHAKQMSVERDIRYDLLARLCPNSTGAEIRSVCTEAGMFAIRARRKVATEKDFLEAINKVVKGYAKFSATPRYLTHN | not soluble
GIPRNSRVDSDDFLWFEGIAFPTMGFRSETLRKVRDEFVIRDEDVIILTYPKSGTNWLAEILCLMHSKGDAKWIQSVPIWERSPWVESEIGYTALSETESPRLFSSHLPIQLFPKSFFSSKAKVIYLMRNPRDVLVSGYFFWKNMKFLKKPKSWEEYFEWFCQGTVLYGSWFDHIHGWMPMREEKNFLLLSYEELKQDTGRTIEKICQFLGKTLEPEELNLILKNSSFQSMKENKMSNYSLLSVDYVVDKTQLLRKGVSGDWKNHFTVAQAEDFDKLFQEKMADLPRELFPWE | soluble
NTATVITVGNYKGGAGKTTNVVLLAYKLAKKGLKVCVLDLDPQSNATKSLLLTKSSLYQDEVVTIEKTLMTGISEKNLDGLEVKIMDNLYLLPSYIDFEDFPKYLYKNTSNQREEDYYLKNIFTPLQGKYDIVLIDVPPMSKAVTRNAVICSDYVLISLQTHERSLSGAESYVEELNKLHNEYDLDLEVVGVLPVIHKNNGSVDQYVMEVAKETFGEDNLFENVVPQMERIKRFDVNGITDKDRHDQKVLNLYDKVSDELLDRINYFEEEKEGAIN | not soluble
MIKGGGGKSSGYSADLMVCFPSRAHLSLPSKSISSPSSSFNRRQNAPHHRRSISKLSSSGGGVRQNRGGGREVVEEPTSPKVTCAGQIKVRSSKRDGGGKNWQSLMAEIEKIHRSKSESKFFGIKRDVMGFLTCLRDFDFRCFGAFPPVDIISDDEEEDEEEEEEDEEEDEDESSGTVFSKWLMVLHEKQNNEECVDGKENVFSDVETAVPPPNALLLMRCRSAPVKNWSEEKKEETEEGDNRVKQSGEEEEEEKDRVGNKKDLRSLMEEEKKMNLVVMNYDTNYYKLSNDIAKETWVVGGIQDPLFRSRSWKK | not soluble
MDMMMDKQEIKREYIEQEGHFETKSRRRELHIEILSEQTKSDIRNSKLVVMN | soluble
SAEGDAGSDQRQNEEIEAMAAIYGEEWCVIDDCAKIFCIRISDDIDDPKWTLCLQVMLPNEYPGTAPPIYQLNAPWLKGQERADLSNSLEEIYIQNIGESILYLWVEKIRDVLIQKSQMTEPGPDVKKKTEEEDVECEDDLILACQPESSVKALDFDISETRTEVEVEELPPIDHGIPITDRRSTFQAHLAPVVCPKQVKMVLSKLYENKKIASATHNIYAYRIYCEDKQTFLQDCEDDGETAAGGRLLHLMEILNVKNVMVVVSRWYGGILLGPDRFKHINNCARNILVEKNYTNSPEESSKALGKNKKVRKDKKRNEH | soluble
RVCPRILLECKKDSDCLAECVCLEHGYCG | soluble
SVQNPVEVSCSLQTQIFVFTPGASSVTIIWWVCFLTSVSMSAQTSPAEKGLNPGLMCQESYACSGTDEAIFECDECCSLQCLRCEEELHRQERLRNHERIRLKPGHVPYCDLCKGLSGHLPGVRQRAIVRCQTCKINLCLECQKRTHSGGNKRRHPVTVYNVSNLQESLEAEEMDEETKRKKMTEKVVSFLLVDENEEIQVTNEEDFIRKLDCKPDQHLKVVSIFGNTGDGKSHTLNHTFFYGREVFKTSPTQESCTVGVWAAYDPVHKVAVIDTEGLLGATVNLSQRTRLLLKVLAISDLVIYRTHADRLHNDLFKFLGDASEAYLKHFTKELKATTARCGLDVPLSTLGPAVIIFHETVHTQLLGSDHPSEVPEKLIQDRFRKLGRFPEAFSSIHYKGTRTYNPPTDFSGLRRALEQLLENNTTRSPRHPGVIFKALKALSDRFSGEIPDDQMAHSSFFPDEYFTCSSLCLSCGVGCKKSMNHGKEGVPHEAKSRCRYSHQYDNRVYTCKACYERGEEVSVVPKTSASTDSPWMGLAKYAWSGYVIECPNCGVVYRSRQYWFGNQDPVDTVVRTEIVHVWPGTDGFLKDNNNAAQRLLDGMNFMAQSVSELSLGPTKAVTSWLTDQIAPAYWRPNSQILSCNKCATSFKDNDTKHHCRACGEGFCDSCSSKTRPVPERGWGPAPVRVCDNCYEARNVQLAVTEAQVDDEGGTLIARKVGEAVQNTLGAVVTAIDIPLGLVKDAARPAYWVPDHEILHCHNCRKEFSIKLSKHHCRACGQGFCDECSHDRRAVPSRGWDHPVRVCFNCNKKPGDL | soluble
MTIHIYNTLTRQKEEFTPLEENKVKMYVCGPTVYNYIHIGNARPPMVFDTVRRYLEYKGYDVQYVSNFTDVDDKLIKAANELGEDVPTIADRFVEAYFEDVTALGCKHATVHPRVTENMDIIIEFIQELVNKGYAYESEGDVYFRTKEFEGYGKLSHQPIADLRHGARIEVGEKKQDPLDFALWKAAKEGEIFWESPWGQGRPGWHIECSAMARKYLGDTIDIHAGGQDLAFPHHENEIAQSEALTGKTFARYWMHNGYININNEKMSKSLGNFILVHDIIKQYDPQLIRFFMLSVHYRHPINFSEELLQSTNNGLERIKTAYGNLKHRMESSTDLTDHNEKWLADLEKFQTAFEEAMNDDFNTANAITELYNVANHANQYLLEEHTSTVVIEAYVKQLETLFDILGLELAQEELLDEEIEALIQKRIEARKNRDFALSDQIRDDLKDRNIILEDTAQGTRWKRG | soluble
MPKFEVPDGWTVQAFRFTLDPTEDQAKALARHFGARRKAYNWTVATLKADIQAWHASGTVTAKPSLRVLRKRWNTVKDDVCVNTETGVAWWPECSKEAYADGIAGAVEAYWNWQTSRAGKRAGKRVGFPRFKRKGRDQDRVSFTTGAMRVEPDRRHLTLPVIGTVRTHENTRRIERLIKAGRARVLAISVRRNGTRLDASVRVLVQRPQQPKVVHPGSRVGVDVGVRRLATVATADGTAIEQVENPRPLGAALRELRHVCRARSRCTKGSRRYRERTTQISRLHRRVNDVRTHHLHVLTTRLAQTHGRIVVEGLDATEMLRQKGLPGARARRRGLSDAALGTPRRHLSYKTVWYGSALVVADRWFPSSKTCHACRHVQDIGWDEQWQCDRCSVVHQRDDCAAINLARYEETSSIVGPVGAAVKRGADRKTGPRPAGGCEARKGSSPKAAEQPRDGVQVA | not soluble
MLRIAVDCMGGDYAPLEIVRGCILAAKELGYKIYLVGDKEQIIPILEKAKEHNNSLLEVVHAPDKVEMHEPPSNVLKKKNSSLYVAGMLVRKGEADGLVSAGNTGAVLAVGKFIVGAEEEVERPSIGVALPNPKGKTVLIDVGANVDCKPKHLVQFAVIGHTYAEEILGIKNPRVGILSIGEEEGKGNELVKETYPLLKATKLNFKGNAEGRDIYAGTFDVIVCDGFVGNVILKASESLGLAVVQMIKEEIKRSILAKLGALLLMPALNRFKKKADFAEYGGIPLLGAKKPVIITHGRANAKAIKNAVRVAGEFLNTDFNKKLVYNLKTLIPEGVKV | soluble
MSLELEQLTSNSIRPYIPKGTHPVETGKYLISTNEIDRMYQTVLQWIGNRIPGAIIYGRPRLGKTRAITYLMNCLPQDFGNNMPIYHVRCRTYKRPNENSFFEDLLLAVGHSIAIQGKANVKRNRLLKFLVERSDFSGTNKVVFFIDDAQRLVEIHYDWLMDLFNELEQYGITLTTILVGQKELVHQRSAFISGEKFQIVGRFMSQEYQFKGIKTPRDLKICLTGYDEYCEYPINSNWSFTKYFFADSFIRGLRLQNSAEELFQVFVDLRREHGLSQKVEIPMQHITLTVEYALKNFGIDNLDLTTIEKTHWEESIKNSGYIQSELYQTTEGHHHHHH | not soluble
MSLSELINNREKRVQTLKEIILHLHRGEAPAAVRGRLAALIADVDASEVAAMEQELMAEGMSHQEVQSLCDLHADVLQDVMTRPATPMPLAPGHPVHQLRAENRALGAAAQTARQRVRELAALADEGRFDAERVEALRAFEVLWEVDRHYQRKEHLVFSVLERHGTTGPSKVMWGKDDEVRDLLKASLAALGEEGVSGAELKVVAETVLEPALSALEGMIYKEENILLPMTLGLFTAEDWGEIFRQSPEYGWCLVQPGTGYRPPEPRPVTDAVKLPPAQAVQFPSGTLSFEQLLGLFQALPVDLTFVDRDDRVAFFSEGPDRVFARSRAVIGREVKHCHPPKSVHVVERIVEDFKAGRQSVAEFWIDLHGRFVHIRYFAVRDAAGAYLGTLEVTQDLTRLRALEGERRLLAYDAGPAHDPITREGHHHHHH | soluble
MTTRNPNRCPSHPGEILAESLEHLNASKTEIARILQISRQHLHGILKGERPVTAVTAARIGKLLGNGPALWLQLQANYDTWHALRDIDVSSIPTLTANEVDTQMEHSHS | not soluble
MYGILCLSLRRIFQWHTYSMVRIHSLNTMNILTNLEFSFPILYSYETLNTMLRKQRRLYMPRTNYIDIMEKNHMEIPWHDYTNADSNALIANADLIEKASVIGRVGLIMLSCGTGAWRVRTSMNKLSKELGVTCTVDVGLMSIEFNCFDGNDCVSQSLSIANTGVNTSKLYRMEQFVDNFPNEEAHLTGEMIHKRLDEIEQIHTLYSPVKLG | not soluble
MQGVPSNEPMLGQLTDNGRAAEAGLKEGDYIQSINGEKMRSWTDIVSAVKENPEKEMDVAVKRDNKTLHISVTPEAVKDENKKTIGRFGSYAPTEKGVLSAVAYGATSTVDVTKAILTNLSKLVTGQFKLDMLSGPVGIYDMTDQVAKTGI | not soluble
MDDRLFRNAMGKFATGVTVITTELNGAVHGMTANAFMSVSLNPKLVLVSIGEKAKMLEKIQQSKKYAVNILSQDQKVLSMNFAGQLEKPVDVQFEELGGLPVIKDALAQISCQVVNEVQAGDHTLFIGEVTDIKITEQDPLLFFSGKYHQLAQNEKVETSS | soluble
MGDGISETIDAFHRGRFHIIQPKGRGHRAGMDAMLLASLVADDRACRIADLGAGAGAAGMAVAARLEKAEVTLYERSQEMAEFARRSLELPDNAAFSARIEVLEADVTLRAKARVEAGLPDEHFHHVIMNPPYNDAGDRRTPDALKAEAHAMTEGLFEDWIRTASAIMVSGGQLSLISRPQSVAEIIAACGSRFGGLEITLIHPRPGEDAVRMLVTAIKGSRARLTFRAPLIMHET | soluble
MEMRQPAVAGQFYPLRCENLENELKRCFEGLEIREQEVLGAVCPHAGYMYSGKVAAHVYATLPEADTYVIFGPNHTGYGSPVSVSRETWKTPLGNIDVDLELADGFLGSIVDADELGHKYEHSIEVQLPFLQYRFERDFKILPICMGMQDEETAVEVGNLLADLISESGKRAVIIASSDFTHYETAERAKEIDSEVIDSILNFDISGMYDRLYRRNASVCGYGPITAMLTASKKLGGSRATLLKYANSGDVSGDKDAVVGYAAIIVELEHHHHHH | soluble
MGSDKIHHHHHHMMNNIGLILFDIDGVIRDVTNSYRLAIQETVNFFSGWRPSIEDIDSIKSEGCWNNDWDLSLEMINRHVQKNNLSFSAPSRKILIECFENFYFGGDPNHDSSEWSGFIKDETLLVKKTFFEELTQRRIGWGFVSGAELPSAKFVLEQRLGLASAPLIAMGEAPEKPDPTGFISLSSKLSKKPLGFSNPPIAYIGDTVADVKTVINARIKIPDQKFISLAIAPPHLHVDSSREKRLRYEAELKKAGADLIIKSMDNLKNETLNLFINQ | not soluble
